Experimental data from patent EP4725963A1.

Target: human NPR1 full-length protein overexpressed on CHO-K1 cells (human) (UniProt P16066)
Test: cell-based or functional assay

human NPR1 full-length protein overexpressed on CHO-K1 cells (human), sequence (P16066 33-1061): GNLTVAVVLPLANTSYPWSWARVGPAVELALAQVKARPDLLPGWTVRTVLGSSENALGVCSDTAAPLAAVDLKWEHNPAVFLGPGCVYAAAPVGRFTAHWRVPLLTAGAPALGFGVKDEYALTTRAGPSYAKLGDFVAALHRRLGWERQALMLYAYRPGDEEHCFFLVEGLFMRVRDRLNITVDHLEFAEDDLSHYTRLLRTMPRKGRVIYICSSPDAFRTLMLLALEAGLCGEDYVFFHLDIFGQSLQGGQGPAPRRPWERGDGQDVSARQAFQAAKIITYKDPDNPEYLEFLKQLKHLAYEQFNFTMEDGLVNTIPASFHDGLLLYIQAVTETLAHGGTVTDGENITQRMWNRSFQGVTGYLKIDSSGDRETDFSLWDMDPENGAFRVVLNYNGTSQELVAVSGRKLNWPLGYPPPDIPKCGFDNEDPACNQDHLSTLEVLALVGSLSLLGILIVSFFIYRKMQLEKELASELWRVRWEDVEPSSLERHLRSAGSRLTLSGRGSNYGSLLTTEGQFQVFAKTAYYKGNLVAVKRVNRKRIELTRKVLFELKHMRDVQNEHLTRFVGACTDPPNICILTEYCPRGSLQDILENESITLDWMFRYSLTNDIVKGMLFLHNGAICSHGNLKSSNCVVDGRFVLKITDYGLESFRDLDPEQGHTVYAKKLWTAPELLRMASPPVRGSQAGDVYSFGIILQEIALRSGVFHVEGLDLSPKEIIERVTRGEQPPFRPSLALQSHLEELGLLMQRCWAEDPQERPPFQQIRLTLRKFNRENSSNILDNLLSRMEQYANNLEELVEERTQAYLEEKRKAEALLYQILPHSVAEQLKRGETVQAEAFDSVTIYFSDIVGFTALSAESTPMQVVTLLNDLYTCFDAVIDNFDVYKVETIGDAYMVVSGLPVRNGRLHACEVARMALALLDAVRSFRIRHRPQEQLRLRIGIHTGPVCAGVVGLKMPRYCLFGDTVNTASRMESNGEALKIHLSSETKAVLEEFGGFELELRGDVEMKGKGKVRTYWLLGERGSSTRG

REGN-5381 (antibody)
Ratio (without ANP) of NPR1 antigens remaining on the cell surface after endocytosis to the initial number, 10 min, 20 µg/mL: 0.56 | Ratio (without ANP) of NPR1 antigens remaining on the cell surface after endocytosis to the initial number, 1 h, 20 µg/mL: 0.46 | Ratio (without ANP) of NPR1 antigens remaining on the cell surface after endocytosis to the initial number, 7 hrs, 20 µg/mL: 0.3 | Ratio (without ANP) of NPR1 antigens remaining on the cell surface after endocytosis to the initial number, 24 hrs, 20 µg/mL: 0.39 | Sum of signal changes (cGMP production in cells before and after endocytosis treatment): 1.08
